Assay results from paper PMC12014896 (2025).

Target: SARS-CoV-2 spike RBD (Wuhan-Hu-1) (Severe acute respiratory syndrome …, UniProt P0DTC2)
Test: SPR

| Binder | Kd [nM] |
| --- | --- |
| COVIC-297 (antibody, V domains shown) VH: EVLLVESGGGLIQPGGSLRLSCAASGLTVSSNYMSWVRQAPGKGLEWVSVIYSGGSTFYADSVKGRFTISRDNSKNTLYLQMNSLRAEDTAVYYCARDLVTWGLDYWGQGTLVTVSS VL: AIQLTQSPSSLSASVGDRVTITCRASQGISSYLAWYQQKPGKAPKLLIYAASTLQSGVPSRFSGSGSGTDFTLTISSLQPEDFATYYCQLLNTDPITFGQGTRLEIK | 0.271 |
| COVIC-186 (antibody, V domains shown) VH: QVQLLQSGAEVKKPGASVKVSCKASGYSFTSYYMHWVRQAPGQGLEWMGIINPSGGGTTYAQKFQGRVTMTRDTSTSTVYMELSSLRSEDTAVYYCARPGGGSYQEFDYWGQGTLVTVSS VL: DIQMTQSPSSLSASVGDRVTITCRASQSISSYLNWYQQKPGKAPKLLISAASSLQSGVPSRFSGSGSGTDFTLTISSLQPEDFATYYCQQSYNTLQVTFGGGTKVEIK | 6.1 |
| COVIC-143 (antibody, V domains shown) VH: EVQLVESGGGVVQPGRSLRLSCAASGFTFSNYAMHWVRQAPGKGLEWVAVISYDGSNKYSADSVKGRFTISRDNSKNTLYLQMNSLRPEDTAVYYCARDGVGTMVRGVMSPLFDYWGQGTLVTVSS VL: not shown | 5.91 |
| COVIC-128 (antibody) chain 1: not shown chain 2: QVQLQESGGGLVQAGGSLRLSCAASGRTFSEYAMGWFRQAPGKEREFVATISWSGGSTYYTDSVKGRFTISRDNAKNTVYLQMNSLKPDDTAVYYCAAAGLGTVVSEWDYDYDYWGQGTQVTVSSGGSGGSQVQLQESGGGLVQAGGSLRLSCVASGSIFSINAMDWYRQAPGKQRELVAGITSGGSTNYGDFVKGRFTISRDNAKNTVYLQMDSLKPEDTAVYYCAAEVGGWGPPRPDYWGHGTQVTVSSGGGGSGGGGSKRTVAAPSVFIFPPSDEQLKSGTASVVCLLNNFYPREAKVQWKVDNALQSGNSQESVTEQDSKDSTYSLSSTLTLSKADYEKHKVYACEVTHQGLSSPVTKSFNRGEC | 119 |
| COVIC-31 (antibody, V domains shown) VH: EVQLVESGVEVKKPGASVKVSCKAFGYTFTGQDMHWVRQAPGQGLEWMGWINPSSAGTNYAQKFQGRVTMTRDTSISTAYMELSRLRSDDTSVYYCRKMLTIFGKVNQTMLLISGAKGQWSPSLQWGQGTMVTVSS VL: DIVMTQTPLSLSVTPGQPASISCKSGQSLLHSDGKTYLYWYLQKPGQPPQLLIYEVSNRFSGVPDRFSGSGSGTDFTLKISRVEAEDVGVYYCMQSIQLPPTFGQGTKVEIK | 70.2 |
| COVIC-331 (antibody, V domains shown) VH: EVQLVESGGGLIQVGGSLRLSCAASGLTVTSNYMNWVRQGPGKGLEWVSLIYSGGTTYYADSVKGRFTISRDDSKNTLYLQMNSLRAEDTAVYYCARPIVGARSGMDVWGQGTAVTVSS VL: DIQMTQSPSSLSASVGDRVTITCQASQDINKYLNWYQQKPGKAPKLLIYDASNLETGVPSRFSGSGSGTDFTFTISSLQPEDLATYYCHQFDNLPGTFGGGTKVEIK | 0.0704 |
| COVIC-250 (antibody, V domains shown) VH: QVQLQQSGPGLVKPSETLALTCTVSGGSTSSYYWSWIRQPPGKGLEWIGSIYYSGSTDYNPSLKSRVTISLDTSKTQFSLKLSSVTAADTAVYYCARVDTSGWYTGDVFDYWGQGTLVTVSS VL: DIQMTQPPSSLSASVGDRVTITCRASQSLSSYLNWYQQKPGKAPKLLIYAVFSLQSGVPSRFSGSGSGTDFTLTISSLQPEDFATYYCQQSYSTPLTFGGGTKVEIK | 17.7 |
| COVIC-295 (antibody, V domains shown) VH: QVQLVQSGAEVKKPGSSVKVSCKASGGTFSSYSFIWVRQAPGQGLEWMGRIIPILGIANYAQKFQGRVTITADKSTTTAYMELSSLRSEDTAVYYCARGTEYGDYDVSHDWGQGTLVTVSS VL: not shown | 0.266 |
| COVIC-158 (antibody, V domains shown) VH: EVQLVESGGGLIQPGGSLRLSCAASGLTVSSNYMNWVRQAPGKKLEWVSVIYSGGSTFYADSVRGRFTISRDNSKNTLFLQMNSLRAEDSAVYYCARDLGPYGVDVWGQGTTVTVSS VL: DIQLTQSPSFLSASVGDRVTITCWASQGISSYLAWYQQKPGKAPKLLIYAASTLQSGVPSRFSGSGSGTEFTLTISSLQPEDFATYYCQQLNSYPLTFGQGTRLEIKR | 1.59 |
| COVIC-122 (antibody) QVQLQESGGGLVQAGGSLRLSCAASGRTFSEYAMGWFRQAPGKEREFVATISWSGGSTYYTDSVKGRFTISRDNAKNTVYLQMNSLKPDDTAVYYCAAAGLGTVVSEWDYDYDYWGQGTQVTVSSGGSGGSQVQLQESGGGLVQAGGSLRLSCAASGRTFSEYAMGWFRQAPGKEREFVATISWSGGSTYYTDSVKGRFTISRDNAKNTVYLQMNSLKPDDTAVYYCAAAGLGTVVSEWDYDYDYWGQGTQVTVSSGGGGSGGGGSKKKPLDGEYFTLQIRGRERFEMFRELNEALELKDAQAGKEPGGGGGSGGGGSQVQLQESGGGLVQAGGSLRLSCAASGRTFSEYAMGWFRQAPGKEREFVATISWSGGSTYYTDSVKGRFTISRDNAKNTVYLQMNSLKPDDTAVYYCAAAGLGTVVSEWDYDYDYWGQGTQVTVSSGGSGGSQVQLQESGGGLVQAGGSLRLSCAASGRTFSEYAMGWFRQAPGKEREFVATISWSGGSTYYTDSVKGRFTISRDNAKNTVYLQMNSLKPDDTAVYYCAAAGLGTVVSEWDYDYDYWGQGTQVTVSS | 203 |
| COVIC-360 (antibody, V domains shown) VH: EVQLVESGGGLVQPGGSLRLSCKASGISVAPHAVTWVRQAPGKGLEWIGVIASNADTYYASWAKGRFTISRDNSKNTLYLQMNSLRAEDTAVYYCARHPGSAGYGYTYYYAMDPWGQGTLVTVSS VL: DIQMTQSPSSLSASVGDRVTITCQASQKIHYAINWYQQKPGKAPKLLIYGTSYLGGGVPSRFSGSGSGTDFTLTISSLQPEDFATYYCQQGYIVPNSFGGGTKVEIK | 0.0132 |
| COVIC-184 (antibody, V domains shown) VH: QITLKESGPTLVKPTQTLTLTCTFSGFSLSTSGVGVGWIRQPPGKALEWLALIYWDDDKRYSPSLKSRLTITKDTSKNQVVLTMTNMDPVDTATYYCAHHKIERIFDYWGQGTLVTVSS VL: QSALAQPASVSGSPGQSITISCTGTSSDVGAYNYVSWYQQHPGKAPKLMIYDVSKRPSGVSNRFSGSKSGNTASLTISGLQAEDEADYYCSSYTTSSTVFGGGTKLTVL | 34.4 |
| COVIC-290 (antibody, V domains shown) VH: QMQLVQSGPEVKKPGTSVKVSCKASGFTFSSSAVQWVRQARGQHLEWIGWIVVGSGNTNYAQKFQERVTLTRDMSTRTAYMELSSLRSEDTAVYYCAAPNCNSTTCHDGFDIWGQGTVVTVSS VL: EIVLTQSPGTLSLSPGERATLSCRASQSVRSSYLGWYQQKPGQAPRLLIYGASSRATGIPDRFSGSGSGTDFTLTISRLESEDFAVYYCQQYDNSPWTFGQGTKVEIK | 0.326 |
